Test results from the PETadex activity labels.

Substrate: BHET
Conditions: 120 h

B1: unnamed (protein)
chain: MRPSSSSLHTAVPLRPCSRAMTALIALATTIGLALALLTAAAPPAAAADLLSQGRLATASSTENTSTPASAAVDGNTGTRWASTFSDPQWLSVDLGATATISQVVLRWEAAYARAFQIQTSTNGTVWTTVHSTTTGTGGVQTLDVIGNGRYVRMLGTQRGTTYGYSLFEFQVYGSGGGTPPGNGIPDPTATSLETANGPLTTATYAVPSPSGYGSGTVTYPTDSGSYPGVVLMPGYQGTQQNLQWLAPRLASWGFVVINVGTNTLTDDPASRGRQITAAGSQLIALGNAAGNPLSGRVSGALGAVGHSMGGGGVMAALRDDARFRAGVPTAPYYPDTNFSAVTEPTFFLTCQSDPVAHGNDYAVPWYNSMSQAEKLYIEVPGDHLCPMTGSGNKAKQGKWIVSFLSLWLRADTRFSPFLCGPVRDPDKNNPSLVTRWMDTCSF
With B1 the plate clearing was “not clears the plate”.

B2: unnamed (protein)
chain: MKTSNTRTARTIPGDTMSLGLTRLAKAAVLAAALLMSAAAQAQSNPYQKGPDPTAASLEATAGSFAVSTTSVSSLSASGFGGGTIYYPTAAGSYGAIAVSPGFTATQSSIAWLGPRLASHGFVVITIDTNSTLDQPDSRATQLMAALNYVVSLSQTSSSPIYGKVDANRLGVAGHSMGGGGTLIAARDNPTLKAAVPLAPWNTTKNFSSVTVPTLIIGCENDTVAPVSSHAIPFYNSIPSSTDKAYMELNGADHFCPQSSSNNPIIGKYMVAWMKRFVDNDTRYSPFLCGAPHQADLSSSAVSDYRSNCPY
With B2 the plate clearing was “not clears the plate”.

B3: unnamed (protein)
chain: MNTSILEKMAVGASALLFSFSAFSFTPDPTPDPDPDPGPGPCQSDCDFTRGPNPTSSYLEANSGPYSVSTISVSRSVSGFGGGTIHYPTNTTGTMGAVAIVPGFLAGESSISWWGPRLASHGFVVITIATNSGFDQPDSRETQLGRALDYVISQSNSGSSPISGMVDSTRVGAMGWSMGGGGTLRLASGTRLSAAIPLAPWHSGSNNFNQIDTPTLIIACENDSTAPVGSHASPFYNRIPTSTDKAYLEINNGSHSCANGGGSNGGLLGKYGVSWMKRFIDQDTRYSQFLCGPNHAANSAISEYRETCNY
For B3, the plate clearing was “not clears the plate”.

B4: unnamed (protein)
chain: MKVNKAHSIAVGLLSLVAVAHTHAQTNPYAKGPDPTSAALEADGPFVVSTQNISGAGFGGATVYSPDTAGTYAVVAFCPGFTATRSSVASFGRRLATHGFVVATIDTNSTLDLPPSRGTQLLAALKTVSALSTGPAAGKIDASRKVVSGWSMGGGGTLYASASDETLKTAVGLAPYSAQKKKFSTSVPQLILGGEDDIVAPVSSHSLSFFNQLPNATPKLYAEIADADHYFPTDAESSQPASKLQIAWVKRFADNDTRYEQFLSTAGIQVDLTNGRLSDSRRESTTF
For B4, the plate clearing was “not clears the plate”.

B5: unnamed (protein)
chain: MKKLALKKLAACTFSLLFSLSAYSGGGDDGSNSGELPPPSTCSINCGFEIGPDPSLSFVRASQGPLPVSTSIVSSSVDGFGGGTIYYPSTITDEMATIAISPGFTASQSAIAWWGPLLASHGFVVITIDTNGTFDQPTSRGRQLDSALNYLISEGNRANSPVAGLIDENRLATMGHSMGGGGALQSAARNRLSASVPLAPFNTGSNDFNQINVPTMIMGCEDDGVAPVNSHAIPFYQDIPGTTDKALLEIANGPHNCANGGSSNNPTLSTYGVSWMKRFLDKDRRYDQFLCGPDHIADSRISDFRDTCTF
For B5, the plate clearing was “not clears the plate”.

B6: unnamed (protein)
chain: MKFRLAKLAVLSCALASASAFAQYQKGPDPTTSSLERAGSFATRTISVSSLAASGFGGGRIYYPTASGSYGVIAVSPGYTGTASTMYFWGERLSSHGFVVIVIETNTLLDQPGSRANQLMAALNYTVSQGNSRTSALYGKVDGNRRGVAGHSMGGGGTLIAAADNASLKAAVPMAPWNLSSLSFRGIRVPTMIFGCQSDAIAPVNTHAVPFYNAIPSSTKKGYVEMRLDDHFCVMNGGGHYETLGKLGISWFKRFIDEDTRYSKFLCGTEYNATVRSTEVSDSKNNCPY
For B6, the plate clearing was “not clears the plate”.

B7: unnamed (protein)
chain: MGSDDAWIRGEDPTEASIVAMGPYAVGEITEADGLRDGPLYGDASVGDGGATVYYPTDADPPFGGIAVYPGWLYNRDAIAGWGPFLASHGIVMMAVDPQSTGEQPEDRQLGQADALISLKGENTRAGSPLEGKLDTTRLGVMGWSMGGGATWLNADDTASEVYADLVVAISLCGWRPVAVGGNTKAASLQFASVADVLAGGMSQPVYDLIPASTPKMLIEFEGDDHFIANDPSGASWQVGRYGLSWIKVFLERDERYRPFLMTMPMNTTEVRPLM
For B7, the plate clearing was “clears the plate (z > 3 vs empty vector)”.

B8: unnamed (protein)
chain: MKFNLVAQAALFAATLAAGSAAWAVQIGPAPTKSALEASRGPFSTKSFTVSRPNGYGAGTVYYPTNAGAKVGVISIVPGYLSYQNSINWWGPRLASHGFVVVTIDTNSTTDQPASRSTQQLKALDQVVALGNTSSSPLYNKVDGSRTGVMGWSMGGGGSLISGQNRPSIKAAAPQAPWNSSTNFSSLTVPTLIFGCQSDATAAPASHAIPFYNSMSRNPKQYLEKSLGNHFCFNSANATVGLKGVAWMKRFVDGDTRYTSFACNNPNASGFSSFRTERCS
B8 was tested, and the plate clearing was “not clears the plate”.

B9: unnamed (protein)
chain: MKTSNSRQRRWAVGLGLLLLAAAAHAQTNPYQKGPDPTSASLNATAGPFAVATTSVSSSASGFGGGTIYYPTTAGSYAAIAISPGFTATQSSIAWLGRRLASHGFVVITINTNSTLDQPPSRATQLMAALRYLTNSSSSTVRSRVDANRLGVAGHSMGGGGTLIAARDNPTLKAAVPLTPWSTTKSFSTVRVPTLIVGAENDTVAPVSSHSIPFYNSLPSSLDKAYAELNGASHFAPNSTNTPIGRYSVAWVKRFMDNDTRYSPFLCGAPHTAYATSTVFSDYRSTCPY
For B9, the plate clearing was “not clears the plate”.

B10: unnamed (protein)
chain: MSCRQEPLGDKMRFFSQKCLATVAAVVATLASGAALAQTSNPYQRGPNPTTSSLEASRGSFAISQFRVSRPSGFGGGTVYYPTNAGGTVGAIAVVPGFLARQSTINWWGPRLASHGFVVITIDTNSTSDQPASRATQLMAALRQVVTLNGTRSSPIYNKVDTSRLAVMGWSMGGGGTLIAARDNPTLKAAVPFAPYNTGTNFSASAVPTLIIGCESDTVAPVGQHAEAFYTSMTRPEKAYLEINGGSHTCATSGNRNQAMIGKYGVSWMKRFVDNDTRFSDFLCGAPHAADLRNTSVISEYRETCPY
With B10 the plate clearing was “not clears the plate”.

B11: unnamed (protein)
chain: MLALRTSFPRVLTRLLAASLATGLVAQAQAAGHERGPAPTAASLEAEAGPFQVASTVLGAPVGYKGGTVFYPKGPGPFALVAFAPGFIETQSWNAWWAKYLASHGFVVVNIDTKSTLAFPPARQREQLAALKDVIQRSHTRGTPFYGLVDATRLGAMGHSMGGGATLELARDTPHIKAIVPMAPFQTTGTDYSRLTVPTLILTCKGDIVASAKSHAAPIYDSLPSSLDKAHVELAGGGGHPCTTSLGTSAEVKKVAAKYGVSWLKRFLDEDTRYSPFLCGAEHEASLKTSVVSAYQGNCPH
In the case of B11, the plate clearing is reported as “not clears the plate”.

B12: unnamed (protein)
chain: MLRFRVAASLPAEYLAVDNVVLEGTAQPPAPGGSGYQKGPEPTAALLEAGTGPFATASVTLSRSAASGFGGGTIHYPQGVAGPFAAVAVVPGYLAAESTIAWWGPRLASHGFVVITMATNNTLDLPASRSAQLTAALNQLKTLSATPGHAVFGLVDPNRLGVVGWSYGGGGTLLNAQANPQLKAAMALAPKTLLQGDFTGTTVPTLVVGCQADTTAAPAFWAIPFYNKVSASTGKAYLEVRGGSHFCVTSSTSDADKKALGKYGVAWLKRFMDEDTRYAPFLCGAPRQADVAGNAAISDYRDNCPY
In the case of B12, the plate clearing is reported as “not clears the plate”.

B13: unnamed (protein)
chain: MASQTNPYARGPNPTAASLEASAGPFTVRSFTVSRPSGYGAGTVYYPTNAGGTVGAIAIVPAYAARQSSIKWWGPRLASHGFVVITIDTNSTLDQPSSRSSQQMAALRQVASLNGTSSSPIYGKVDTARMGVMGWSMGGGGSLISAANNPSLKAAAPQAPWDSSTNFSSVTVPTLIFACENDSIAPVNSSALPIYDSMSRNAKQFLEINGGSHSCANSGNSNQALIGKKGVAWMKRFMDNDTRYSTFACENPNSTRVSDFRTANCSLEHHHHHH
For B13, the plate clearing was “not clears the plate”.

B14: unnamed (protein)
chain: MRAGFMGVGAAALVALAGCSSTPSNEGTSKPSVTAPTGGSTVIGAAGVGATAGRPASAGTGASPAVTPPSTTVPSGTTKPPAAAGSSAMGAAGAAVSGMAGSSASAGTGAIAGSSAAAGSSAAAGSGAAAGSGAAPGGGFIREAAPTEDSLKKNGEYSVKSYTEKDGLVGGMEYGDAALGGDGSELYYPEGATAPFAAMAIVPGFTAQRSDVAPWGPFLASHGIVALVIDTNSTGDQPDVRSRALLDALESIKKENMRDGSPVKGKIDTSRLGVMGWSMGGGGTWITADGHPELKVAVSLCGWIIQSIGSKTTVPSLQLAVQDDQLAAGMSQPVYMAIPDKTPKMLVEWSSGGHWINNSPENVDHQVGRYGLPWIKVYLENDERYRQFFKTKPTGASDFQTNQ
For B14, the plate clearing was “clears the plate (z > 3 vs empty vector)”.

B15: unnamed (protein)
chain: MRLIRRWPMRRLAIGFVLALVLSACDWRGPAPTQQSVVAARGPFAVGTIAVPSSAGFGGGTIYYPSDNAGPFAVISISPGFLGDQSSIAVWGPRLASNGFVAITINTTNGFILPDQRSQEQRQALTYVVNQGNNPSSPISGKVDPDRKGVAGHSMGGGATLISANADPTIRAAMPLAPWNGSASFPNVRVPTLIWACEADNIAPVASHASPMYNSIPSTTRKMYLSVDNGNHFCANSPDNSSQTVGKFGVSFFKKFLDTDTRYDPWVCGASRATAGTVLNEVRSTCPF
In the case of B15, the plate clearing is reported as “not clears the plate”.
